*1 amine or outer side, *2 acyl side, *3 side chain or, on linkers, in order; H or OH if unused. Bridges are numbered along the chain shown (N, C = ends). Where no end group is shown, it is not given here. [ ]: non-standard residue; d: D form. The star is where a group is joined. Hexa = hexylalanine = (2S)-2-aminononanoic acid, CCCCCCC[C@H](N[*:1])C(=O)[*:2]; Biotin = O=C1N[C@H]2[C@H](CS[C@H]2CCCCC(=O)*)N1; perfluorosulfone = not defined here; R8 = C=CCCCCCC[C@@](C)(N)C(=O)O; F2f = difluoro-L-phenylalanine; Cba = N[C@@H](CC1CCC1)C(=O)O; S5 = C=CCCC[C@](C)(N)C(=O)O; Anta = not defined here; Napa = not defined here; Dap = NC[C@H](N)C(=O)O; F3f = not defined here

To fix the notation:
B1: peptide 8b (peptide)
peptide: Ac-LTLEHYWAQLTSK-NH2
notes: Text says 3Phe to Leu or Tyr (8a and 9a)
B2: peptide 9b (peptide)
peptide: Ac-LTYEHYWAQLTSK-NH2
notes: as for B1
B3: peptide ATSP-7040 (peptide)
peptide: LTF[R8]EYWAE[Cba][S5]SAA-NH2
modifications: staple 4-11; N-terminus assumed
SMILES: CC(C)C[C@H](N)C(=O)N[C@H](C(=O)N[C@@H](Cc1ccccc1)C(=O)N[C@]1(C)CCCCCCC=CCCC[C@@](C)(C(=O)N[C@@H](CO)C(=O)N[C@@H](C)C(=O)N[C@@H](C)C(N)=O)NC(=O)[C@H](CC2CCC2)NC(=O)[C@H](CCC(=O)O)NC(=O)[C@H](C)NC(=O)[C@H](Cc2c[nH]c3ccccc23)NC(=O)[C@H](Cc2ccc(O)cc2)NC(=O)[C@H](CCC(=O)O)NC1=O)[C@@H](C)O
B4: peptide 27b-M (peptide)
peptide: Ac-LT[F2f][R8]EY[Napa]AE[Cba]KSAA-NH2
modifications: staple (positions not given here); not fully specified (residue 11, bridges); reading uncertain
B5: peptide 11b-S4 (peptide)
peptide: Ac-LT[F2f]KEYWAE[Cba]KSAA-NH2
modifications: linker 4-11 via perfluorosulfone; reading uncertain; also: printed as LT(F2f)KEYWAE(Cba)KSAA
B6: peptide 10b-S4 (peptide)
peptide: Ac-LT[F2f]KEY[Hexa]AQ[Cba]KSAA-NH2
modifications: linker 4-11 via perfluorosulfone; reading uncertain; also: printed as LT(F2f)KEY(Hexa)AQ(Cba)(K)SAA
B7: peptide 3a (peptide)
peptide: Biotin-LTFPHYWAELTSK-NH2
SMILES: CC(C)C[C@H](NC(=O)CCCC[C@@H]1SC[C@@H]2NC(=O)N[C@@H]21)C(=O)N[C@H](C(=O)N[C@@H](Cc1ccccc1)C(=O)N1CCC[C@H]1C(=O)N[C@@H](Cc1c[nH]cn1)C(=O)N[C@@H](Cc1ccc(O)cc1)C(=O)N[C@@H](Cc1c[nH]c2ccccc12)C(=O)N[C@@H](C)C(=O)N[C@@H](CCC(=O)O)C(=O)N[C@@H](CC(C)C)C(=O)N[C@H](C(=O)N[C@@H](CO)C(=O)N[C@@H](CCCCN)C(N)=O)[C@@H](C)O)[C@@H](C)O

One assay concerns the target T1, SUMO-^25-109MDM2 (UniProt Q00987 25-109).
T1 construct: range 25-109; Expressed in Rosetta (DE3) pLysS cells, MW=23 297 Da, used with the SUMO tag on; not shown: SUMO fusion tag (protein purified on Ni-NTA)
In words: BLI, peptide on streptavidin sensors, global fit. For orientation: Biolayer interferometry detects binding as a change in optical thickness at a sensor tip.
Broadly, the Kd is a measure of binding affinity in units of concentration. Biotin-LT[F2f][R8]EY[Hexa]AQ[Cba][S5]SAA-NH2 (staple 4-11, Macrocyclic) [peptide 10a-M]: the Kd amounted to 0.005 µM.
Still for that read-out and setting: the same measure for Biotin-LT[F2f]EHY[Hexa]AQ[Cba]TSK-NH2 [peptide 10a]: 0.0005 µM.
Still for that read-out and setting: the same measure for Biotin-LT[F2f]EHYWAQ[F2f]TSK-NH2 [peptide 25a]: 0.02 µM; for Biotin-LT[F3f]EHY[Anta]AQ[Cba]TSK-NH2 (reading uncertain; also: printed as LT(F3f)EHY(Anta)AQ(Cba)TSK) [peptide 22a]: 0.01 µM; for Biotin-LT[F2f]EHYWAQ[Cba]TSK-NH2 [peptide 11a]: 0.002 µM.
Still for that read-out and setting: under Biotin-LT[F2f]EHYWAQ[Hexa]TSK-NH2 [peptide 19a] stands 0.008 µM.

For the next assay, the target named is T1, SUMO-^25-109MDM2. Briefly: BLI in-solution competition assay, free MDM2 read on immobilized 63a.
As to B1, binding was characterised by a dissociation constant (Kd) of 2.5 µM.
Ac-LTFEHYWAQYTSK-NH2 [peptide 7b] registered a Kd of 0.49 µM.
Same read-out and setting: under B2 stands 8.7 µM.

Another assay concerns the target T1, SUMO-^25-109MDM2. In words: BLI, immobilized assay for biotinylated peptide.
Biotin-LT[F2f][R8]EY[Hexa]AQ[Cba][S5]SAA-NH2 (staple 4-11, Macrocyclic) [peptide 10a-M] gave a Kd of 0.003 µM.

A further assay deals with T1, SUMO-^25-109MDM2. In words: BLI, estimated in solution (competition assay) for acetylated construct.
Regarding Ac-LT[F2f][Dap]EYWAQ[Cba][Dap]SAA-NH2 (linker 4-11 via perfluoroaryl sulfone, Macrocyclic) [peptide 11b-S1], the Kd was 0.001 µM.

The next assay has as its target T1, SUMO-^25-109MDM2. In words: BLI, acetylated peptide (in solution competition assay).
B1: the Kd worked out at 2.7 µM.

A further assay has as its target MDM2 in MDM2 overexpressing SJSA-1 cells (UniProt Q00987 1-491, limits assumed). In words: cell-based or functional assay.
On to Ac-LT[F2f][Dap]EY[Hexa]AQ[Cba][Dap]SAA-NH2 (bridge 4-11 via perfluorosulfone; reading uncertain) [peptide 10b-S1], for which the “IC50, viability of SJSA-1 cells” value was more than 20 µM.
Same read-out and setting: the same measure for Ac-LT[F2f][R8]EY[Hexa]AQ[Cba][S5]SAA-NH2 (bridges not given here) [peptide 10b-M unclosed]: 17 µM; for Ac-LT[F2f][Dap]EYWAQ[Cba][Dap]SAA-NH2 (linker 4-11 via perfluoroaryl sulfone, Macrocyclic) [peptide 11b-S1]: 7.8 µM.
The same measure, in the same setting: the same measure for B3: 3 µM; for Ac-LT[F2f][R8]EFWAQ[Cba][S5]SAA-NH2 (staple 4-11) [peptide 11b-M]: 3.2 µM; for B4: 2.7 µM.
Take B5: the “IC50, viability of SJSA-1 cells” value is more than 20 µM.
On to Ac-LT[F2f][R8]EY[Hexa]AQ[Cba][S5]SAA-NH2 (staple 4-11) [peptide 10b-M], for which the “IC50, viability of SJSA-1 cells” value was found to be 2.4 µM.
On to B6, for which the “IC50, viability of SJSA-1 cells” value is more than 20 µM.
Consider Ac-LT[F2f]KEY[Napa]AQ[Cba]KSAA-NH2 (linker 4-11 via perfluorosulfone; reading uncertain) [27b-S4], for which the “IC50, viability of SJSA-1 cells” value was more than 20 µM.

A further assay concerns the target T1, SUMO-^25-109MDM2. In words: BLI, biotinylated peptide immobilized.
Molecule B7 yielded a Kd of 0.08 µM.

These data come from patent US20190300576A1 (MIT, published 2019).
